Laboratory results from paper PMC6548132, “Engineered SUMO/protease system identifies Pdr6 as a bidirectional nuclear transport receptor” (The Journal of Cell Biology, 2019).

Biological target: T1, recombinant Pdr6 (S. cerevisiae, UniProt P32767 1-1081)
T1 construct: Pdr6/Kap122, S. cerevisiae; also called Kap122; source: E. coli NEB express, purified (Ni2+ chelate beads)
T1 sequence (looked up): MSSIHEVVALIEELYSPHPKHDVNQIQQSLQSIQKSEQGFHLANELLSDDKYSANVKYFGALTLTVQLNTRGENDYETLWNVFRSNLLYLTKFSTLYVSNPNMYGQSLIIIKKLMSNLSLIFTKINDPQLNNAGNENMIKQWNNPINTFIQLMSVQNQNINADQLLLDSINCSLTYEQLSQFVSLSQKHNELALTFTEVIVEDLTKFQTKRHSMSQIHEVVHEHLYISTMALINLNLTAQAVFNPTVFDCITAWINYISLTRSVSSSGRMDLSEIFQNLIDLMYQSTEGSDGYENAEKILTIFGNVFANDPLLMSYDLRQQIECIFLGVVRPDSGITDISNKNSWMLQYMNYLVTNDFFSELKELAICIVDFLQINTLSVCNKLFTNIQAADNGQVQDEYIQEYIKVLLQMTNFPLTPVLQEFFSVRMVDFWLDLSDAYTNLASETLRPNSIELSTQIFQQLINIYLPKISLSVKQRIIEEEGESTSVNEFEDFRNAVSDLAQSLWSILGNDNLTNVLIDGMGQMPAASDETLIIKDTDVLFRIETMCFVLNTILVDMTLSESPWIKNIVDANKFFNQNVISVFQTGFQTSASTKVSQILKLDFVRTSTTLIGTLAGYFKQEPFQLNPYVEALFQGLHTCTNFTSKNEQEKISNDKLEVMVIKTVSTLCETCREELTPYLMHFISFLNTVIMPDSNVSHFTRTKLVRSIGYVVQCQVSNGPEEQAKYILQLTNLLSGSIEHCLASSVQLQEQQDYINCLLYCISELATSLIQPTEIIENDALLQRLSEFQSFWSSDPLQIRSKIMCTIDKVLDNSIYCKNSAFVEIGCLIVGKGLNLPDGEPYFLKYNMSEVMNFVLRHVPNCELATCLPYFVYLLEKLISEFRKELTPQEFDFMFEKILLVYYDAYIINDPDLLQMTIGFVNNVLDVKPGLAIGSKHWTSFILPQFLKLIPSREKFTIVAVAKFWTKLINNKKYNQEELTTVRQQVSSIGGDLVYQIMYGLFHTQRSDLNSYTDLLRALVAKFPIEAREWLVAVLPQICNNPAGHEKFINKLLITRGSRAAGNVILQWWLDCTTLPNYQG
Assay: pull-down; 1.5 µM H14-ZZ-NEDD8-Ubc9 as bait, 3 µM recombinant Pdr6, with or without 3 µM RanGTP and 3 µM eIF5A; anti-ZZ/ED affibody matrix, elution by NEDP1 tag cleavage; 1 h at 4°, 45 mM Tris/HCl pH 7.5, 100 mM NaCl, 2 mM MgCl2, 5 mM DTT; SDS-PAGE/Coomassie
Conditions: both partners purified

B1: H14-ZZ-NEDD8–tagged Ubc9 (enzyme, yeast (S. cerevisiae), UniProt P50623 1-157, looked up)
chain: MSSLCLQRLQEERKKWRKDHPFGFYAKPVKKADGSMDLQKWEAGIPGKEGTNWAGGVYPITVEYPNEYPSKPPKVKFPAGFYHPNVYPSGTICLSILNEDQDWRPAITLKQIVLGVQDLLDSPNPNSPAQEPAWRSFSRNKAEYDKKVLLQAKQYSK
notes: Ubc9, SUMO-conjugating E2 enzyme of yeast; Tag is cut by NEDP1 only at elution; also called immobilized Ubc9; source: E. coli NEB express, purified (Ni2+ chelate beads)
B1: binds.
